What was measured:
rat α-CGRP = target: T1, rat α-CGRP (Rattus norvegicus, UniProt P01256); assay: Biacore SPR affinity of Fab fragments to N-biotinylated rat α-CGRP on SA chip; format: binding; conditions: 37° C., screening mode except underlined values
T1 construct: rat α (1-37); purchased GenScript Corporation or Global Peptide Services
T1 sequence (P01256 83-119 limits assumed): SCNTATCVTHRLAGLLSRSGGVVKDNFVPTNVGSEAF
Outline: (§1)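 HBS-EP pH 7.4 running buffer at 25° C. or 37° C.; N-biotinylated CGRP captured on streptavidin SA chip (<50 RU for kinetics), Fab titrated over surface with regeneration by 25 mM NaOH/25% ethanol. Titrations globally fit to 1:1 Langmuir model; KD=koff/kon, with 2-hour dissociation for very slow off-rates.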

human α-CGRP = target: T2, human α-CGRP (Homo sapiens, UniProt P06881); assay: Biacore SPR affinity of Fab fragments to N-biotinylated human α-CGRP on SA chip; format: binding; conditions: 37° C., screening mode except underlined values
T2 construct: 1-37 (WT); purchased GenScript Corporation or Global Peptide Services
T2 sequence (P06881 83-119 limits assumed): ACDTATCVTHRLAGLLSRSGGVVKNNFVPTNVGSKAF
Outline: as §1

Molecule	α-rat koff (rat α-CGRP) [s⁻¹]	α-human koff (human α-CGRP) [s⁻¹]
M27: G1 variant; L1 R28N T30A; HC-FW3 L99T A100V (antibody, V domains shown) VH: EVQLVESGGGLVQPGGSLRLSCAASGFTFSNYWISWVRQAPGKGLEWVAEIRSESDASATHYAEAVKGRFTISRDNAKNSLYLQMNSLRAEDTAVYYCTVYFDYGLAIQNYWGQGTLVTVSS VL: EIVLTQSPATLSLSPGERATLSCKASKNVATYVSWYQQKPGQAPRLLIYGASNRYLGIPARFSGSGSGTDFTLTISSLEPEDFAVYYCSQSYNYPYTFGQGTKLEIK	0.00341	0.000357
M33: G1 variant; L1 R28N T30G; H2 E54K A57N S58G; HC-FW3 L99T A100V (antibody, V domains shown) VH: EVQLVESGGGLVQPGGSLRLSCAASGFTFSNYWISWVRQAPGKGLEWVAEIRSKSDNGATHYAEAVKGRFTISRDNAKNSLYLQMNSLRAEDTAVYYCTVYFDYGLAIQNYWGQGTLVTVSS VL: EIVLTQSPATLSLSPGERATLSCKASKNVGTYVSWYQQKPGQAPRLLIYGASNRYLGIPARFSGSGSGTDFTLTISSLEPEDFAVYYCSQSYNYPYTFGQGTKLEIK	0.00922	0.00075
M28: G1 variant; L1 R28N T30D; H2 E54R A57N; HC-FW3 L99T A100V (antibody, V domains shown) VH: EVQLVESGGGLVQPGGSLRLSCAASGFTFSNYWISWVRQAPGKGLEWVAEIRSRSDNSATHYAEAVKGRFTISRDNAKNSLYLQMNSLRAEDTAVYYCTVYFDYGLAIQNYWGQGTLVTVSS VL: EIVLTQSPATLSLSPGERATLSCKASKNVDTYVSWYQQKPGQAPRLLIYGASNRYLGIPARFSGSGSGTDFTLTISSLEPEDFAVYYCSQSYNYPYTFGQGTKLEIK	0.00125	9.96e-05
M32: G1 variant; L1 R28N T30G; H2 E54K A57H; HC-FW3 L99T A100V (antibody, V domains shown) VH: EVQLVESGGGLVQPGGSLRLSCAASGFTFSNYWISWVRQAPGKGLEWVAEIRSKSDHSATHYAEAVKGRFTISRDNAKNSLYLQMNSLRAEDTAVYYCTVYFDYGLAIQNYWGQGTLVTVSS VL: EIVLTQSPATLSLSPGERATLSCKASKNVGTYVSWYQQKPGQAPRLLIYGASNRYLGIPARFSGSGSGTDFTLTISSLEPEDFAVYYCSQSYNYPYTFGQGTKLEIK	0.00296	0.000271
M30: G1 variant; L1 R28N T30G; H2 E54K A57E; HC-FW3 L99T A100V (antibody, V domains shown) VH: EVQLVESGGGLVQPGGSLRLSCAASGFTFSNYWISWVRQAPGKGLEWVAEIRSKSDESATHYAEAVKGRFTISRDNAKNSLYLQMNSLRAEDTAVYYCTVYFDYGLAIQNYWGQGTLVTVSS VL: EIVLTQSPATLSLSPGERATLSCKASKNVGTYVSWYQQKPGQAPRLLIYGASNRYLGIPARFSGSGSGTDFTLTISSLEPEDFAVYYCSQSYNYPYTFGQGTKLEIK	0.00638	0.00059
M29: G1 variant; L1 R28N T30G; HC-FW3 L99T A100V (antibody, V domains shown) VH: EVQLVESGGGLVQPGGSLRLSCAASGFTFSNYWISWVRQAPGKGLEWVAEIRSESDASATHYAEAVKGRFTISRDNAKNSLYLQMNSLRAEDTAVYYCTVYFDYGLAIQNYWGQGTLVTVSS VL: EIVLTQSPATLSLSPGERATLSCKASKNVGTYVSWYQQKPGQAPRLLIYGASNRYLGIPARFSGSGSGTDFTLTISSLEPEDFAVYYCSQSYNYPYTFGQGTKLEIK	0.00359	0.00038
M35: G1 variant; L1 R28N T30G; H2 E54K A57S; HC-FW3 L99T A100V (antibody, V domains shown) VH: EVQLVESGGGLVQPGGSLRLSCAASGFTFSNYWISWVRQAPGKGLEWVAEIRSKSDSSATHYAEAVKGRFTISRDNAKNSLYLQMNSLRAEDTAVYYCTVYFDYGLAIQNYWGQGTLVTVSS VL: EIVLTQSPATLSLSPGERATLSCKASKNVGTYVSWYQQKPGQAPRLLIYGASNRYLGIPARFSGSGSGTDFTLTISSLEPEDFAVYYCSQSYNYPYTFGQGTKLEIK	0.00399	0.000339
M37: G1 variant; L1 R28N T30S; H2 A57G; HC-FW3 L99T A100V (antibody, V domains shown) VH: EVQLVESGGGLVQPGGSLRLSCAASGFTFSNYWISWVRQAPGKGLEWVAEIRSESDGSATHYAEAVKGRFTISRDNAKNSLYLQMNSLRAEDTAVYYCTVYFDYGLAIQNYWGQGTLVTVSS VL: EIVLTQSPATLSLSPGERATLSCKASKNVSTYVSWYQQKPGQAPRLLIYGASNRYLGIPARFSGSGSGTDFTLTISSLEPEDFAVYYCSQSYNYPYTFGQGTKLEIK	0.00145	0.000226
M36: G1 variant; L1 R28N T30R; HC-FW3 L99T A100V (antibody, V domains shown) VH: EVQLVESGGGLVQPGGSLRLSCAASGFTFSNYWISWVRQAPGKGLEWVAEIRSESDASATHYAEAVKGRFTISRDNAKNSLYLQMNSLRAEDTAVYYCTVYFDYGLAIQNYWGQGTLVTVSS VL: EIVLTQSPATLSLSPGERATLSCKASKNVRTYVSWYQQKPGQAPRLLIYGASNRYLGIPARFSGSGSGTDFTLTISSLEPEDFAVYYCSQSYNYPYTFGQGTKLEIK	0.00479	0.000239
M31: G1 variant; L1 R28N T30G; H2 E54K A57G; HC-FW3 L99T A100V (antibody, V domains shown) VH: EVQLVESGGGLVQPGGSLRLSCAASGFTFSNYWISWVRQAPGKGLEWVAEIRSKSDGSATHYAEAVKGRFTISRDNAKNSLYLQMNSLRAEDTAVYYCTVYFDYGLAIQNYWGQGTLVTVSS VL: EIVLTQSPATLSLSPGERATLSCKASKNVGTYVSWYQQKPGQAPRLLIYGASNRYLGIPARFSGSGSGTDFTLTISSLEPEDFAVYYCSQSYNYPYTFGQGTKLEIK	0.00361	0.000347
M34: G1 variant; L1 R28N T30G; H2 E54K A57N S58T; HC-FW3 L99T A100V (antibody, V domains shown) VH: EVQLVESGGGLVQPGGSLRLSCAASGFTFSNYWISWVRQAPGKGLEWVAEIRSKSDNTATHYAEAVKGRFTISRDNAKNSLYLQMNSLRAEDTAVYYCTVYFDYGLAIQNYWGQGTLVTVSS VL: EIVLTQSPATLSLSPGERATLSCKASKNVGTYVSWYQQKPGQAPRLLIYGASNRYLGIPARFSGSGSGTDFTLTISSLEPEDFAVYYCSQSYNYPYTFGQGTKLEIK	0.00217	0.000646
